The results in this text go back to the nanobody polyreactivity screen of Harvey et al. (2022).

The data set can be described thus: yeast display, Sf9 membrane polyspecificity reagent, FACS + sequencing; frameworks hold sequencing errors. Summed up:
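Genes from sorted yeast were amplified by colony PCR, read by MiSeq 2 × 250 sequencing and filtered on CDR length. These cells carried a synthetic nanobody library in Saccharomyces cerevisiae BJ5465 and were sorted by FACS into low and high (top ~1%) gates on anti-HA and streptavidin fluorescence. Polyreactivity is labelled according to the gate of origin.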
Turning to “QVQLVESGGGLVQAGGSLRLSCAASGYIFGIYAMGWYRQAPGKERELVARINWSGGRTYYADSVKGRFTISRDNAKNTVYLQMNSLKTEDTAVYYCAARSSYRKMDYWGQGTQVTVSS”, the “polyreactivity (PSR sort gate)” value is “high polyreactivity”.
The same measure for “QVQLVESGGGLVQAGGSLRLSCAASGYIFGNYAMGWYRQAPGKERELVAAISKSGVTTYYADSVKGRFTISRDNAKNTVYLQMNSLKPEDTAVYYCIARSWRPINARYNEYDYWGQGTQVTVSS”: “low polyreactivity”; for “QVQLVESGGGLVQAGGSLRLSCAASGYIFGPNAMGWYRQAPGKERELVAAISSRGDSTFYADSVKGRFTISRDNAKNTDYLQMNSLKPEDTAVYYCAAEEITQFYVGSYLDDYWGQGTQVTVSS”: “low polyreactivity”.
The same measure for “QVQLVESGGGLVQAGGSLRLSCAASGYIFGQYAMGWYRQAPGKERELVAAIRRSGGRTYYADSVKGRFTISRDNAKNTVYLQMNSLKPEDTAVYYCNKGPPQTSWRTTLFDYWGQGTQVTVSS”: “high polyreactivity”.
For “QVQLVESGGGLVQAGGSLRLSCAASGYIFGSYVMGWYRQAPGKERELVAAISRRGGSTYYADSVKGRFTISRDNAKNTVNLQMNSLKPEYTAVYYFSADYGQYAKYDYWGQGTQVTVSS” the value was “high polyreactivity”; for “QVQLVESGGGLVQAGGSLRLSCAASGYIFGVYAMGWYRQAPGKERELVAAISYGVGSTYYADSVKGRFTISRDNAKNTVYLQMNSLKPEDNAVYYCAAEDTQVRWSPVRPLEDYWGQGTQVTVSS”, “low polyreactivity”.
Take “QVQLVESGGGLVQAGGSLRLSCAASGYIFGWYTMGWYRQAPGKERELVAAISGGGRTYYADSVKGRFTISRDNAKNTVYLQMNSLKPEDTAVYYCAARVAQVAYPDGYWGQGTQVTVSS”: the “polyreactivity (PSR sort gate)” value was “high polyreactivity”.
For “QVQLVESGGGLVQAGGSLRLSCAASGYIFGYNAMGWYRQAPGKERELVATINSSDSTNYADSVKGRFTISRDNAKNTVYLQMNSLKPEDTAVYYCNKDHVRRSYPYDYWGQGTQVTVSS” the value was “low polyreactivity”; for “QVQLVESGGGLVQAGGSLRLSCAASGYIFGYYAMGWYRQAPGKERELVAAIRSGGNTYYADSVKGRFTISRDNAKNTVYLQMNSLKPEDTAVYYCAKRYGRFSDYWGQGTQVTVSS”, “high polyreactivity”; for “QVQLVESGGGLVQAGGSLRLSCAASGYIFGYYVMGWYRQARGKERELVAAISDSDITYYADSVKGRFTISRDNAKNTVSLQMNSLKPEDTAVYYCNADFGYWWDGRRYDYWGQGTQVTVSS”, “low polyreactivity”.
As to “QVQLVESGGGLVQAGGSLRLSCAASGYIFHYNAMGWYRQAPGKEREFVAAISQGGGSTYYADSVKGRFTISRDNAKNTVYLQMNSLKPEDTAVYYCAADYRSGYREMDYWGQGTQVTVSS”, the “polyreactivity (PSR sort gate)” value is reported as “low polyreactivity”.
In the case of “QVQLVESGGGLVQAGGSLRLSCAASGYIFIGYAMGWYRQAPGKERELVATITSGGSTNYADSVKGRFTISRDNAKNTVYLQLHSLNPEDTAVDYCAAGRGRYFYSWRYLYAIFDYWGQGTQVTVSS”, the “polyreactivity (PSR sort gate)” value is on record as “low polyreactivity”.
For “QVQLVESGGGLVQAGGSLRLSCAASGYIFINNAMGWYRQAPGKERELVAAISFNSGSTYYADSVKGRFTISRDNAKNTVYLQMNSLKPEDTAVYYCAADYEGWGYDYRGDYWGQGTQVTVSS” the value was “low polyreactivity”.
The same measure for “QVQLVESGGGLVQAGGSLRLSCAASGYIFIVNAMGWYRQAPGKERELVAAINSSGGNTYYADSVKGRFTISRDNAKNTVYLLMNSLKPEDTAVYYCAADQAKDISVEYDYWGQGTQVTVSS”: “low polyreactivity”.
For “QVQLVESGGGLVQAGGSLRLSCAASGYIFKYNTMGWYRQAPGKERELVASITWSGVRTYYADSVKGRFTISRDNAKNTVYLQMNSLKPEDTAVYYCNAAYRRSWDSDDYWGQGTQVTVSS” the value was “low polyreactivity”; for “QVQLVESGGGLVQAGGSLRLSCAASGYIFKYYAMGWYRQAPGKERELVATINYSGGGTYYADSVKGRFTISRDNAKNTVYLQMNSLKPEDTAVYYCAAEHFFWGYDYWGQGTQVTVSS”, “high polyreactivity”.
With “QVQLVESGGGLVQAGGSLRLSCAASGYIFLAYAMGWYRQAPGKERELVADNTYADSVKGRFTISRDNAKNTVYLQMNSLKPEDPAVYYCNADEVYDEYSYDYWGQGTQVTVSS”, the “polyreactivity (PSR sort gate)” value is recorded as “low polyreactivity”.
For “QVQLVESGGGLVQAGGSLRLSCAASGYIFLRNAMGWYRQAPGKERELVAAIRRTGGSTYYADSVKGRFTISRDNAKHTVYLQMNSLKPEDTAVYYCAKRSYTGYESWGQGTQVTVSS” the value was “low polyreactivity”.
As for “QVQLVESGGGLVQAGGSLRLSCAASGYIFLVYAMGWYRQAPGKERELVAAIDWSDTHTYYADSVKGRFTISRDNAKNTVYLHMNSLKPEDSAVYYCNADDYQYKTWYHLDYWGQGTQVTVSS”, the “polyreactivity (PSR sort gate)” value is given as “low polyreactivity”.
The same measure for “QVQLVESGGGLVQAGGSLRLSCAASGYIFLYNAMGWYRQAPGKERELVAAIRAIGGRTYYADSVKGRFTISRDNAKNTVYLQMNSLKPEDTAVYYCNARGQRRRSTGLRYIYDYWGQGTQVTVSS”: “high polyreactivity”; for “QVQLVESGGGLVQAGGSLRLSCAASGYIFLYYTMGWYRQAPGKERELVAAITIGGGTYYADSVKGRFTISRDNAKNTVYLQMNSLKPEDTAVYYCNADYASYYRYSRPLEMNYWGQGTQVTVSS”: “low polyreactivity”; for “QVQLVESGGGLVQAGGSLRLSCAASGYIFNVYAMGWYRQAPGKESELVAAISTSGGSTYYADSVKGRFSISRDNAKNTVYLQMNSLKPEDTAVYYCAAKSTLSRSHKSDYWGQGTQVTVSS”: “high polyreactivity”.
In the case of “QVQLVESGGGLVQAGGSLRLSCAASGYIFNYYAMGWYRQAPGKERELVAAITSGDSTYADSVKGRFTISRDNAKNTVYLQMNSLKPEDTAVYYCAAEISILPFVTPDTIYGYWGQGTQVTVSS”, the “polyreactivity (PSR sort gate)” value is listed as “low polyreactivity”.
For “QVQLVESGGGLVQAGGSLRLSCAASGYIFNYYGMGWYRQAPGKDRELVATISRGASTNYADSVKGRFTISRDNARNTVYFQMNTLKPEDTAVYYCAYWGQRTQVTVSS” the value was “low polyreactivity”; for “QVQLVESGGGLVQAGGSLRLSCAASGYIFPFYAMGWYRQAPGKQRELVAAITESGGSTYYADSVKGRFTISRDNAKNNVYLQMNSLKPEDTAVYYCAKEVVKHPRGKLDYWGQGTQVTLSS”, “low polyreactivity”; for “QVQLVESGGGLVQAGGSLRLSCAASGYIFPRYAMGWYRQAPGKERELVAAISYSGGSTYYADSVKGRFTISRDYAKNTVYLQMNSLKPEDTAVYYCNAYFLSQYQSAYRDDYWGQGTQVTVSS”, “high polyreactivity”.
For “QVQLVESGGGLVQAGGSLRLSCAASGYIFPYNAMGWYRQAPGKERELVATITWTGGSTYYADSVKGRFTISRDNAKNSVYLQMNSLKPEDTAVYYCAADLSIRYDHEYGYWGKGTQVTVSS” the value was “low polyreactivity”; for “QVQLVESGGGLVQAGGSLRLSCAASGYIFPYNVMGWSRQAPGKERELVAAITWRVVRTYYADSVKGRFTISRDNAKNTVYLQMNSLKPEDTAVYYCAALSRQSGDYWGQGTQVTVSS”, “high polyreactivity”.
For “QVQLVESGGGLVQAGGSLRLSCAASGYIFQRDAMGWYRTAPGKEREFVAAIRYSGGSTYYADSVKGRFTISRDNAKNTVYLQMNCLKPEDTAVYYCAADQRDPWRSAYGYYYWGQGTQVTVSS” the value was “high polyreactivity”; for “QVQLVESGGGLVQAGGSLRLSCAASGYIFQVNAMGWYRQAPGKERELVASISCGGSTNYADSVKGRFTISRDNAKNTVYLQMNSLKPEDTAVYYCAAELGYPYLQYVYWSQYLYDYWGQGTQVTVSS”, “low polyreactivity”; for “QVQLVESGGGLVQAGGSLRLSCAASGYIFRYNAMGWYRQAPGKEREFVASISQRGGSTYYADSVKGRFTISRDNAKNTVYLQMNSLKPEDTAVYYCAARLGYYSYEYNYWGQGTQVTVSS”, “high polyreactivity”.
In the case of “QVQLVESGGGLVQAGGSLRLSCAASGYIFSGNAMGWYRQAPGKERELVAAITRSDVNTDYADSVKGRFTISRDNAKNTVYLQMNSLKPEDTAVYSCNTRVRASSVDYDEGDYWGQGTQVTVSS”, the “polyreactivity (PSR sort gate)” value was “low polyreactivity”.
On to “QVQLVESGGGLVQAGGSLRLSCAASGYIFSLNAMGWYRQAPGKERELVAGIRKRGGSTYYADSVKGRFTISRDNAKNTVYLQMNSLKPEDTAVYYCAAQPALTYRFYYWGQGTQVTVSS”, for which the “polyreactivity (PSR sort gate)” value is “high polyreactivity”.
For “QVQLVESGGGLVQAGGSLRLSCAASGYIFTIYAMGWYRQAPAKEREFVAAITWSGGRTYYADSVKGRFTISRDTAKNTVYLQMNSLKPEDSAVDYGAARVANYLSQMYYWGQGTQVTVSS” the value was “high polyreactivity”.
The same measure for “QVQLVESGGGLVQAGGSLRLSCAASGYIFVFNTMGWYRQAPGKERELVASISWDAGTTYYADSVKGRFTISRDNAKNTVYLQMNSLKPEDTAVDYCNAGRIRSGYLDYWGQGTQVTVSS”: “low polyreactivity”; for “QVQLVESGGGLVQAGGSLRLSCAASGYIFVRYAMGWYRQAPGKERELVAAINSSGGRTYYADSVKGRFTISRDNAKNTVYLQLNSLKPEDTAVYYCAAYGYYRSGYRALEGYWGQGTQVTVAS”: “high polyreactivity”.
In the case of “QVQLVESGGGLVQAGGSLRLSCAASGYIFVRYAMGWYRQAPGKERELVAAINSSRGRTYYADSVKGRFTISRDNAKNTVSLQMNSLKPEDTAVYYCGAYGYYRSGYRALEGYWGQGTQVTVSS”, the “polyreactivity (PSR sort gate)” value is recorded as “high polyreactivity”.
For “QVQLVESGGGLVQAGGSLRLSCAASGYIFVYYAMGWYRQAPGKEREMVAAISSSGDTTYYADSVKGRFTISRDNAKNTVYLQMNSLKPEDTAVYYCAARVRGYSHASNYYWGQGTQVTVSS” the value was “high polyreactivity”; for “QVQLVESGGGLVQAGGSLRLSCAASGYIFVYYVMGWYRQAPGKERELVTAIDGNGVSTYYADSVKGRFSISRDNAKYSVYLQMNSLKPDDTAVYYCAADYLYHQTSRGKYYSWGQGTQVTVSS”, “low polyreactivity”; for “QVQLVESGGGLVQAGGSLRLSCAASGYIFWGNAMGWYRQAPGKERELVAAISYIGGSTYYADSVKGRFTISRDNAKNTVYLQMNSLKPEDTAVYYCAKRVLHQPYYHGVSGRRYDYWGQGTQVTVSS”, “high polyreactivity”.
The same measure for “QVQLVESGGGLVQAGGSLRLSCAASGYIFWSYAMGWYRQAPGKERELVAGITASGGSTYYADSVKGRFTISRDNAKNTVYLQMNSLKPEDTAVYYCAAEAYTQYWIYYYWGQCTQVTVSS”: “high polyreactivity”.
